How the values were obtained:
[1] = target: human β-myosin heavy chain, proximal S2 (hS2) proximal S2, 838-963 (UniProt P12883); assay: solid-phase binding assay (SPBA); details: sites S273,S282,S302
[2] = target: mouse recombinant C0-C2 protein, WT (mC0-C2^Wt) (mouse, UniProt O70468 1-448); assay: solid-phase binding assay (SPBA); 20 μM C0-C2 (bait) adsorbed onto microtiter plates overnight at 4 °C; 0-20 μM recombinant myosin S2 (prey) added; bound S2 detected with polyclonal anti-S2 antibody and Alexa Fluor 568 secondary antibody; intensity normalised to that at maximal S2; one-phase association fit for Bmax and Kd; details: both partners purified
mouse recombinant C0-C2 protein, WT (mC0-C2^Wt), sequence (O70468 1-448): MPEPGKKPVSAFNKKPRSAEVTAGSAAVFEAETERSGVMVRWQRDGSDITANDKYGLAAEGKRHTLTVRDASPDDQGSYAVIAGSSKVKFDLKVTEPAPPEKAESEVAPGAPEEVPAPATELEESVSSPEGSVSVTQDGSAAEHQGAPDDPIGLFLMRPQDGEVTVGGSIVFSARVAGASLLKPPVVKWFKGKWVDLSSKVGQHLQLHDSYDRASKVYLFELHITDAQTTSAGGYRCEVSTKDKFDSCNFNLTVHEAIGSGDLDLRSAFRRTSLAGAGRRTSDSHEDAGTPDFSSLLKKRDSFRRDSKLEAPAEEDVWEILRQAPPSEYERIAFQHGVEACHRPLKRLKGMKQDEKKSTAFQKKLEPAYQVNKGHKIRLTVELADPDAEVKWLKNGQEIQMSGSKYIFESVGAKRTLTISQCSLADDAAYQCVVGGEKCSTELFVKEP

[3] = target: human C0-C2 region of cardiac myosin-binding protein-C (hC0-C2) (human) (UniProt Q14896); assay: ITC; 350 μM hS2 titrated into 20 μM hC0-C2 (with or without PKA phosphorylation) in PBS at 20 °C; MicroCal VP-ITC; 25 injections of 10 μl at 180 s; four-parameter logistic fit; Kd calculated from the reciprocal of the slope
[4] = target: PKA-phosphorylated human C0-C2 (hC0-C2p) (human) (UniProt Q14896); assay: as above
[5] = target: human C0-C2 region of cardiac myosin-binding protein-C (hC0-C2) (human) (UniProt Q14896); assay: solid-phase binding assay (SPBA); 20 μM C0-C2 (bait) adsorbed onto microtiter plates overnight at 4 °C; 0-20 μM recombinant myosin S2 (prey) added; bound S2 detected with polyclonal anti-S2 antibody and Alexa Fluor 568 secondary antibody; intensity normalised to that at maximal S2; one-phase association fit for Bmax and Kd
[6] = target: mouse recombinant C0-C2 protein, phospho-ablated (mC0-C2^AAA) (mouse) (UniProt O70468); assay: as above
mouse recombinant C0-C2 protein, phospho-ablated (mC0-C2^AAA) (mouse), sequence (O70468 other isoform, or with tags, fused parts or gaps): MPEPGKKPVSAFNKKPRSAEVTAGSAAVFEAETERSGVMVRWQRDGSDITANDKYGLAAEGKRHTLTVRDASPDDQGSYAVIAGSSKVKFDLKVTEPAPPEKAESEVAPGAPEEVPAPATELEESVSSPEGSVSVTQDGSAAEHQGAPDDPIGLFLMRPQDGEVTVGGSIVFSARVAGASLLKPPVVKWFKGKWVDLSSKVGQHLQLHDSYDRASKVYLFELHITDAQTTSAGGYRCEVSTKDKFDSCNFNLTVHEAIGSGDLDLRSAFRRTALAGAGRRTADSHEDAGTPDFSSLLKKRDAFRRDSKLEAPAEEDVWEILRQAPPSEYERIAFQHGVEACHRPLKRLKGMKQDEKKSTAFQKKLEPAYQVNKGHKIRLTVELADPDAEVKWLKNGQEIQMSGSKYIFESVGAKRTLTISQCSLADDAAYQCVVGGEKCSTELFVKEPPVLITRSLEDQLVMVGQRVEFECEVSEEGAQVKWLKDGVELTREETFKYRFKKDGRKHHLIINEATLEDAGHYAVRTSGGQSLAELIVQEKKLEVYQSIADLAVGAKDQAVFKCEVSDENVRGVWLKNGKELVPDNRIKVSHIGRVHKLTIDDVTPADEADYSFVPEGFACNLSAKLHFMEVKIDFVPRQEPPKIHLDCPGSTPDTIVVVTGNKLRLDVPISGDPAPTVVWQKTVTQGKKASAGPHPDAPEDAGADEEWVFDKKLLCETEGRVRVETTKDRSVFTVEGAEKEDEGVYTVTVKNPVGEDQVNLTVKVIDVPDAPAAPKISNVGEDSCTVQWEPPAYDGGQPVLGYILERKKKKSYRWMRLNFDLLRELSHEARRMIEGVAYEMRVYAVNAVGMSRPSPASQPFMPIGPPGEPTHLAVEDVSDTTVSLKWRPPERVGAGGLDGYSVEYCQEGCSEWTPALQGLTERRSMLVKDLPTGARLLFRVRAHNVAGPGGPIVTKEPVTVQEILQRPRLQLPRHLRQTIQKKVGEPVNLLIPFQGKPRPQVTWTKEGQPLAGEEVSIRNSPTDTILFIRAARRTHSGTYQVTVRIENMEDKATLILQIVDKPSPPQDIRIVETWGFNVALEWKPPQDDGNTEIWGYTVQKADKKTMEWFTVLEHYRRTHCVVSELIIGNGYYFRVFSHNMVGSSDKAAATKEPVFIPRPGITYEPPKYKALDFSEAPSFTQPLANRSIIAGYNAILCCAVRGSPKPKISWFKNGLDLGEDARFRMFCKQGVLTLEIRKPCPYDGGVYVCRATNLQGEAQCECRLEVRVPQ

[7] = target: PKA-phosphorylated human C0-C2 (hC0-C2p) (human) (UniProt Q14896); assay: as above
[8] = target: mouse recombinant C0-C2 protein, phospho-mimetic (mC0-C2^DDD) (mouse) (UniProt O70468); assay: as above
mouse recombinant C0-C2 protein, phospho-mimetic (mC0-C2^DDD) (mouse), sequence (O70468 other isoform, or with tags, fused parts or gaps): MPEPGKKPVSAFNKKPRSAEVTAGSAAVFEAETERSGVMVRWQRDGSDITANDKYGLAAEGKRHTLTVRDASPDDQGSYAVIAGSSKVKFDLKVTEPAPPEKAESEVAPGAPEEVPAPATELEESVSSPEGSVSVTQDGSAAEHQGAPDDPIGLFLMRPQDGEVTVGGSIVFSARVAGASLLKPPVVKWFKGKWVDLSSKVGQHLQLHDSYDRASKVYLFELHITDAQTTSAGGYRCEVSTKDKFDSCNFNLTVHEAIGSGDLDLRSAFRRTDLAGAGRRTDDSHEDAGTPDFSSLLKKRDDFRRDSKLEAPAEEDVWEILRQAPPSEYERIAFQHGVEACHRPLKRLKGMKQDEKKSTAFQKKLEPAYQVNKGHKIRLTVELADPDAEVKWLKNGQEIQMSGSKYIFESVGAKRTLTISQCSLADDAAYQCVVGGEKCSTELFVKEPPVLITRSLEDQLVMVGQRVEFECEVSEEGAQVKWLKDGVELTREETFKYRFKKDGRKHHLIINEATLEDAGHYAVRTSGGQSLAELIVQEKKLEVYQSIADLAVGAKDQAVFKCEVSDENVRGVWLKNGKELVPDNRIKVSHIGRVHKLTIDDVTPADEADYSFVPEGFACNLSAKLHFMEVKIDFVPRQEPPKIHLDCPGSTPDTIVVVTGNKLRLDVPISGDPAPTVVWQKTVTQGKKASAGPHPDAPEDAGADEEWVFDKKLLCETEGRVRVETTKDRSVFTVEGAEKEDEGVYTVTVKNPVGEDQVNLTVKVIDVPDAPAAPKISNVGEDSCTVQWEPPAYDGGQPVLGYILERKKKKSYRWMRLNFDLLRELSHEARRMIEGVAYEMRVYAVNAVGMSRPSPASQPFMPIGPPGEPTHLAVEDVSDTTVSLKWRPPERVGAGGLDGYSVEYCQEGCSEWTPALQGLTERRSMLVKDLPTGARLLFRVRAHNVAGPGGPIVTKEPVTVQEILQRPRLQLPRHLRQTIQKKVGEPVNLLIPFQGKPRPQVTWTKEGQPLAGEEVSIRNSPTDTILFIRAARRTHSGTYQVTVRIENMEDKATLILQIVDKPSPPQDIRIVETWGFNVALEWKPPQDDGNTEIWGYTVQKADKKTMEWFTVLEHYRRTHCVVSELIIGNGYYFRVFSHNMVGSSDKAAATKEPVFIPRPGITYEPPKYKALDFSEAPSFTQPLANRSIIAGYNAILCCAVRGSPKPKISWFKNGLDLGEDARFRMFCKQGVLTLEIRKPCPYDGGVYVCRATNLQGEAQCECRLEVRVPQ

“mouse cardiac myosin-binding protein-C (cMyBP-C), mC0-C2 C0-C2 (from UniProt O70468) mC0-C2 DDD” was tested, and the “other: Bmax” value ([1]; reference: mC0-C2 AAA) was “weaker; reference 0.95 ± 0.04” and the “other: Bmax” value ([1]; reference: mC0-C2 wild type) was “weaker; reference 1.02 ± 0.04”.

B1: human recombinant proximal S2 protein with E930Δ mutation (hS2^E930Δ) (domain or fragment, UniProt P12883 838-963, looked up)
chain: PLLKSAEREKEMASMKEEFTRLKEALEKSEARRKELEEKMVSLLQEKNDLQLQVQAEQDNLADAEERCDQLIKNKIQLEAKVKEMNERLEDEEMNAELTAKKRKLEDECSELKRDIDDLELTLAK
notes: human β-myosin heavy chain (MYH7), proximal S2, residues 838-963, with the HCM-causing deletion of E930; mutation found in HCM patients, introduced by site-directed mutagenesis; coiled coil in low-salt buffer by CD
B1 was tested, and the Kd [2] was 1320 nM, the Kd [3] was 42300 nM and the Kd [4] was 8570 nM. It also gave a stoichiometry N [4] of 0.35, a Kd [5] of 6670 nM and a stoichiometry (η) based on Bmax, hC0-C2 to hS2 mutant compared with hS2^WT [5] of 1.23. The Kd [6] was 1220 nM, the Kd [7] was 970 nM and the stoichiometry (η) based on Bmax, hC0-C2p to hS2 mutant [7] was 1.24. For the same molecule, the Kd [8] was 880 nM.

B2: human recombinant proximal S2 WT protein (hS2^Wt) (domain or fragment, UniProt P12883 838-963, looked up)
chain: PLLKSAEREKEMASMKEEFTRLKEALEKSEARRKELEEKMVSLLQEKNDLQLQVQAEQDNLADAEERCDQLIKNKIQLEAKVKEMNERLEDEEEMNAELTAKKRKLEDECSELKRDIDDLELTLAK
notes: pET28a+ vector; also called WT hS2; human cardiac myosin S2
With B2 the Kd [2] was 1890 nM, the Kd [3] was 4710 nM and the stoichiometry N [3] was 1.08. The Kd [5] was 5040 nM, the Kd [6] was 1810 nM and the Kd [7] was 7350 nM. It also gave a stoichiometry (η) based on Bmax, hC0-C2p to hS2^Wt compared with hC0-C2 to hS2^WT [7] of 1.26 and a Kd [8] of 2020 nM.

B3: human recombinant proximal S2 protein with R870H mutation (hS2^R870H) (domain or fragment, UniProt P12883 838-963, looked up)
chain: PLLKSAEREKEMASMKEEFTRLKEALEKSEARHKELEEKMVSLLQEKNDLQLQVQAEQDNLADAEERCDQLIKNKIQLEAKVKEMNERLEDEEEMNAELTAKKRKLEDECSELKRDIDDLELTLAK
notes: human β-myosin heavy chain (MYH7), proximal S2, residues 838-963, with the HCM-causing mutation R870H; mutation found in HCM patients, introduced by site-directed mutagenesis; coiled coil in low-salt buffer by CD
B3 showed a Kd [2] of 1640 nM, a Kd [3] of 19000 nM and a stoichiometry N [3] of 2.53. It also gave a Kd [4] of 11000 nM, a stoichiometry N [4] of 1.07 and a Kd [5] of 6290 nM. The stoichiometry (η) based on Bmax, hC0-C2 to hS2 mutant compared with hS2^WT [5] was 1.24, the Kd [6] was 1510 nM and the Kd [7] was 1260 nM. For the same molecule, the stoichiometry (η) based on Bmax, hC0-C2p to hS2 mutant [7] was 1.17 and the Kd [8] was 790 nM.

B4: human recombinant proximal S2 protein with E924K mutation (hS2^E924K) (domain or fragment, UniProt P12883 838-963, looked up)
chain: PLLKSAEREKEMASMKEEFTRLKEALEKSEARRKELEEKMVSLLQEKNDLQLQVQAEQDNLADAEERCDQLIKNKIQLEAKVKEMNKRLEDEEEMNAELTAKKRKLEDECSELKRDIDDLELTLAK
notes: human β-myosin heavy chain (MYH7), proximal S2, residues 838-963, with the HCM-causing mutation E924K; mutation found in HCM patients, introduced by site-directed mutagenesis; coiled coil in low-salt buffer by CD
B4 was tested, and the Kd [2] was 1510 nM, the Kd [3] was 30500 nM and the Kd [4] was 16500 nM. It also gave a stoichiometry N [4] of 2.57, a Kd [5] of 4300 nM and a stoichiometry (η) based on Bmax, hC0-C2 to hS2 mutant compared with hS2^WT [5] of 1.21. It also gave a Kd [6] of 1480 nM, a Kd [7] of 830 nM and a stoichiometry (η) based on Bmax, hC0-C2p to hS2 mutant [7] of 1.21. It also gave a Kd [8] of 740 nM.

— publication PMC8239744, “Mutations in myosin S2 alter cardiac myosin-binding protein-C interaction in hypertrophic cardiomyopathy in a phosphorylation-dependent manner” (The Journal of Biological Chemistry, 2021)
